Results taken from US6864363B2 (priority 2000, dated 2005).

Experiments:
Format in all cases: biochemical, Porphyromonas gingivalis
[1] = tested on: P. gingivalis DPP-7; assay: Endopeptidase activity of DPP-7 on protein substrates and plasma inhibitors
[2] = tested on: P. gingivalis DPP-7
[3] = pH optimum and stability of purified DPP-7 (activity against H-Ala-Phe-pNA)
Description: Kinetic Analysis—Routinely, the dipeptidylpeptidase amidolytic activity was measured with H-Ala-Phe-pNA (1 mM) in 0.2 M HEPES, pH 7.8 at 37° C. The reaction was followed for specific time intervals in a thermostated ELISA reader (SpectraMax, Applied Biosystem) and the release of p-nitroaniline was monitored at 405 nm. Other p-nitroanilide substrates were used in the same manner. For inhibition studies, the enzyme was first preincubated with an inhibitor for 15 minutes at 37° C., substrate added, and residual activity recorded. The initial steady-state velocity (v0) was determined by continuous assay for the range of substrate concentrations (100 nM to 1 mM). Km and Vmax were determined by hyperbolic regression of the kinetic data using the software package Hyper Version 1.02 obtained from Dr. J. S. Easterby (University of Liverpool, UK).
pH Optimum and Stability—Purified DPP-7 was active against H-Ala-Phe-pNA over a broad pH range, from neutral to basic pH (6.5-9.0) (FIG. 3). This activity also changed with the ionic strength of the buffer, reaching 200% at 0.5 M NaCl concentration in 100 mM HEPES, pH 8.0. DPP-7 was stable in 0.2 M HEPES, pH 8.0, for one week at 4° C. […] After 3 hours incubation at either room temperature or 37° C., activity was reduced to 62% and 20%, respectively. The optimum temperature for the hydrolysis of H-Ala-Phe-pNA was determined to be 43° C.

## gelatin
[1]
  endopeptidase activity of DPP-7 on protein substrate: did not show any endopeptidase activity

## insulin β chain
[1]
  endopeptidase activity of DPP-7 on protein substrate: did not show any endopeptidase activity

B1: α1-antichymotrypsin: human plasma inhibitor (protein)
chain: HPNSPLDEENLTQENQDRGTHVDLGLASANVDFAFSLYKQLVLKAPDKNVIFSPLSISTALAFLSLGAHNTTLTEILKGLKFNLTETSEAEIHQSFQHLLRTLNQSSDELQLSMGNAMFVKEQLSLLDRFTEDAKRLYGSEAFATDFQDSAAAKKLINDYVKNGTRGKITDLIKDLDSQTMMVLVNYIFFKAKWEMPFDPQDTHQSRFYLSKKKWVMVPMMSLHHLTIPYFRDEELSCTVVELKYTGNASALFILPDQDKMEEVEAMLLPETLKRWRDSLEFREIGELYLPKFSISRDYNLNDILLQLGIEEAFTSKADLSGITGARNLAVSQVVHKAVLDVFEEGTEASAATAVKITLLSALVETRTIVRFNRPFLMIIVPTDTQNIFFMSKVTNPKQA
[2]
  inactivation of / influence on DPP-7 activity (in words): did not effect enzyme activity

B2: DPP-7: P. gingivalis dipeptidylpeptidase-7, a 76 kDa serine protease purified from the membrane fraction (protein, listed as Porphyromonas gingivalis)
chain: MQMKLKSILLGAALLLGASGVAKADKGMWLLNELNQENLDRMRELGFTLPLDSLYSFDKPSIANAVVIFGGGCTGITVSDQGLIFTNHHCGYGAIQSQSTVDHDYLRDGFVSRTMGEELPIPGLSVKYLRKIVKVTDKVEGQLKGITDEMERLRKAQEVCQELAKKENADENQLCIVEPFYSNNEYFLIVYDVFKDVRMVFAPPSSVGKFGGDTDNWMWPRHTGDFSVFRVYAGADNRPAEYSKDNKPYKPVYFAAVSMQGYKADDYAMTIGFPGSTDRYLTSWGVEDRIENENNPRIEVRGIKQGIWKEAMSADQATRIKYASKYAQSANYWKNSIGMNRGLARLDVIGRKRAEERAFADWIRKNGKSAVYGDVLSSLEKAYKEGAKANREMTYLSETLFGGTEVVRFAQFANALATNPDAHAGILKSLDDKYKDYLPSLDRKVLPAMLDIVRRRIPADKLPDIFKNVIDKKFKGDTKKYADFVFDKSVVPYSDKFHAMLKSMDKEKFAKAIEKDPAVELSKSVIAAARAIQADAMANAYAIEKGKRLFFAGLREMYPGRALPSDANFTMRMSYGSIKGYEPQDGAWYNYHTTGKGVLEKQDPKSDEFAVQENILDLFRTKNYGRYAENGQLHIAFLSNNDITGGNSGSPVFDKNGRLIGLAFDGNWEAMSGDIEFEPDLQRTISVDIRYVLFMIDKWGQCPRLIQELKLI
[3]
  optimum temperature for the hydrolysis of H-Ala-Phe-pNA: 43 °C
[3]; 0.2 M HEPES, pH 8.0, one week at 4° C.
  stability: stable
[3]; 0.5 M NaCl in 100 mM HEPES, pH 8.0
  activity with ionic strength of the buffer: 200%
[3]; 3 hours at 37° C.
  activity remaining after incubation: 20%
[3]; 3 hours at room temperature
  activity remaining after incubation: 62%
[3]; kept frozen at −80° C. for one month
  stability, loss of activity: no appreciable loss of activity
